Test results reported in PMC7924733 (Journal of molecular biology, 2021).

B1: His6-Atg16 L71C (natural protein, S. cerevisiae, UniProt Q03818 1-150, looked up)
chain: MGNFIITERKKAKEERSNPQTDSMDDLLIRRLTDRNDKEAHLNELFQDNSGAIGGNIVSHDDALLNTLAICQKELKSKEQEIRRLKEVIALKNKNTERLNDELISGTIENNVLQQKLSDLKKEHSQLVARWLKKTEKETEAMNSEIDGTK
B2: Atg16 L71C L85C L99C L120C (natural protein, S. cerevisiae, UniProt Q03818 1-150, looked up)
chain: MGNFIITERKKAKEERSNPQTDSMDDLLIRRLTDRNDKEAHLNELFQDNSGAIGGNIVSHDDALLNTLAICQKELKSKEQEIRRCKEVIALKNKNTERCNDELISGTIENNVLQQKLSDCKKEHSQLVARWLKKTEKETEAMNSEIDGTK
B3: Atg16 L71C L120C (natural protein, S. cerevisiae, UniProt Q03818 1-150, looked up)
chain: MGNFIITERKKAKEERSNPQTDSMDDLLIRRLTDRNDKEAHLNELFQDNSGAIGGNIVSHDDALLNTLAICQKELKSKEQEIRRLKEVIALKNKNTERLNDELISGTIENNVLQQKLSDCKKEHSQLVARWLKKTEKETEAMNSEIDGTK

Biological target: the molecule itself
Assay: cross-linking

Stoichiometry N, 2:
B1, B2, B3
